Results as given in US20060185026.

Test system: tau (substrate in the in vitro phosphorylation assay of FIG. 1A)

PKCζ (kinase in the in vitro phosphorylation assay of FIG. 1A)
incorporation of radioactive phosphate into tau (autoradiogram): when tau is incubated with PKCζ phosphate is incorporated into tau
